Test results taken from patent US5843460.

Biological target: H. pylori urease (UreA and UreB subunits) expressed in E. coli from the urease gene cluster of pILL763 or pILL753 (Helicobacter pylori)

| Substance | urease activity (Berthelot reaction) of E. coli co-expressing the urease gene cluster and HspA plus HspB [fold] |
| --- | --- |
| H. pylori HspB heat shock protein (GroEL-like) | 3 |
| H. pylori HspA heat shock protein (GroES-like) | 3 |
